From patent US20050118674A1, “Engineering of Controlled Deamidation Rates in Peptides, Proteins, and Similar Structures” (priority 2003, published 2005)

Experiment: First-order nonenzymatic deamidation of pentapeptides in Tris buffer
Format: physicochemical
Settings: pH 7.4, 37.0° C., 0.15 M Tris HCl; Asn pentapeptides
Method: One of the discoveries made was that the sequence dependence of deamidation is much richer and covers a wider range than previously thought. In 37° C., pH 7.4, 0.15 M Tris buffer, the combination of XxxAsnYyy and XxxGlnYyy sequences where Xxx and Yyy are any of the naturally occuring amino acids covers a range from less than 1 day to over 15,000 days with the entire range in between available.
It is based on pentapeptide rates measure in 37° C., pH 7.4, 0.15 M Tris buffer. The applicability of a pentapeptide model to sequence dependence was verified in a separate set of experiments. All values listed in this table are experimental except for the four values in boxes, which were estimated from the rest of the data.
It is also based on pentapeptide rates measure in 37° C., pH 7.4, 0.15 M Tris buffer. In this case, the 52 values shown in bold were measured, and the rest of the values were derived from surface fitting.
Deamidation rates are affected by a wide variety of parameters, including, pH, Temperature, Ionic Strength, and Buffer Ions. These rates are measured under pH and Temperature conditions that are applicable to biological systems. The buffer type and concentration were chosen to minimize ion affects to the extent possible given the experimental limitations. Modification of these conditions will change the rates in Tables 1 and 2. As long as the conditions are not taken to extremes (i.e. high temperature, or strongly acidic or basic conditions) the qualitative sequence dependence should remain the same and the rates reported here can be used with necessary adjustments.

Substance	First-Order Deamidation Halftimes of GlyXxxAsnYyyGly
GlyCysAsnAlaGly (GCNAG; printed: GlyCysAsnAlaGly)	26.4 days
GlyCysAsnArgGly (GCNRG; printed: GlyCysAsnArgGly)	83.1 days
GlyCysAsnAspGly (GCNDG; printed: GlyCysAsnAspGly)	30.6 days
GlyCysAsnCysGly (GCNCG; printed: GlyCysAsnCysGly)	46.0 days
GlyCysAsnGluGly (GCNEG; printed: GlyCysAsnGluGly)	48.3 days
GlyCysAsnGlyGly (GCNGG; printed: GlyCysAsnGlyGly)	1.14 days
GlyCysAsnHisGly (GCNHG; printed: GlyCysAsnHisGly)	10.8 days
GlyCysAsnIleGly (GCNIG; printed: GlyCysAsnIleGly)	304 days
GlyCysAsnLeuGly (GCNLG; printed: GlyCysAsnLeuGly)	119 days
GlyCysAsnLysGly (GCNKG; printed: GlyCysAsnLysGly)	46.6 days
GlyCysAsnMetGly (GCNMG; printed: GlyCysAsnMetGly)	64.5 days
GlyCysAsnPheGly (GCNFG; printed: GlyCysAsnPheGly)	73.9 days
GlyCysAsnProGly (GCNPG; printed: GlyCysAsnProGly)	1550 days
GlyCysAsnSerGly (GCNSG; printed: GlyCysAsnSerGly)	19.0 days
GlyCysAsnThrGly (GCNTG; printed: GlyCysAsnThrGly)	48.7 days
GlyCysAsnTrpGly (GCNWG; printed: GlyCysAsnTrpGly)	111 days
GlyCysAsnTyrGly (GCNYG; printed: GlyCysAsnTyrGly)	83.9 days
GlyCysAsnValGly (GCNVG; printed: GlyCysAsnValGly)	229 days

Substance	First-Order Deamidation Halftimes of GlyXxxAsnYyyGly
GlyGluAsnAlaGly (GENAG; printed: GlyGluAsnAlaGly)	25.8 days
GlyGluAsnAmCysGly	32.1 days
GlyGluAsnArgGly (GENRG; printed: GlyGluAsnArgGly)	80.9 days
GlyGluAsnAspGly (GENDG; printed: GlyGluAsnAspGly)	32.0 days
GlyGluAsnCysGly (GENCG; printed: GlyGluAsnCysGly)	44.2 days
GlyGluAsnGluGly (GENEG; printed: GlyGluAsnGluGly)	60.3 days
GlyGluAsnGlyGly (GENGG; printed: GlyGluAsnGlyGly)	1.45 days
GlyGluAsnHisGly (GENHG; printed: GlyGluAsnHisGly)	9.0 days
GlyGluAsnIleGly (GENIG; printed: GlyGluAsnIleGly)	279 days
GlyGluAsnLeuGly (GENLG; printed: GlyGluAsnLeuGly)	130 days
GlyGluAsnLysGly (GENKG; printed: GlyGluAsnLysGly)	77.8 days
GlyGluAsnMetGly (GENMG; printed: GlyGluAsnMetGly)	59.6 days
GlyGluAsnPheGly (GENFG; printed: GlyGluAsnPheGly)	70.2 days
GlyGluAsnSerGly (GENSG; printed: GlyGluAsnSerGly)	16.4 days
GlyGluAsnThrGly (GENTG; printed: GlyGluAsnThrGly)	36.8 days
GlyGluAsnTrpGly (GENWG; printed: GlyGluAsnTrpGly)	98.4 days
GlyGluAsnTyrGly (GENYG; printed: GlyGluAsnTyrGly)	94.5 days
GlyGluAsnValGly (GENVG; printed: GlyGluAsnValGly)	268 days

Same assay, conditions: pH 7.4, 37.0 ° C., 0.15 M Tris HCl; Gln pentapeptides; 52 values measured, rest derived from surface fitting

Substance	First-Order Deamidation Halftimes of GlyXxxGlnYyyGly
GlyAspGlnProGly (GDQPG; printed: GlyAspGlnProGly)	11000 days
GlyAspGlnSerGly (GDQSG; printed: GlyAspGlnSerGly)	6200 days
GlyAspGlnThrGly (GDQTG; printed: GlyAspGlnThrGly)	5400 days
GlyAspGlnTrpGly (GDQWG; printed: GlyAspGlnTrpGly)	17000 days
GlyAspGlnTyrGly (GDQYG; printed: GlyAspGlnTyrGly)	13000 days
GlyAspGlnValGly (GDQVG; printed: GlyAspGlnValGly)	6600 days
GlyCysGlnAlaGly (GCQAG; printed: GlyCysGlnAlaGly)	4100 days
GlyCysGlnArgGly (GCQRG; printed: GlyCysGlnArgGly)	5100 days
GlyCysGlnAspGly (GCQDG; printed: GlyCysGlnAspGly)	6100 days
GlyCysGlnCysGly (GCQCG; printed: GlyCysGlnCysGly)	800 days
GlyCysGlnGluGly (GCQEG; printed: GlyCysGlnGluGly)	5600 days
GlyCysGlnGlyGly (GCQGG; printed: GlyCysGlnGlyGly)	560 days
GlyCysGlnHisGly (GCQHG; printed: GlyCysGlnHisGly)	4200 days
GlyCysGlnIleGly (GCQIG; printed: GlyCysGlnIleGly)	4900 days
GlyCysGlnLeuGly (GCQLG; printed: GlyCysGlnLeuGly)	4800 days
GlyCysGlnLysGly (GCQKG; printed: GlyCysGlnLysGly)	4400 days
GlyCysGlnMetGly (GCQMG; printed: GlyCysGlnMetGly)	3200 days
GlyCysGlnPheGly (GCQFG; printed: GlyCysGlnPheGly)	6500 days
GlyCysGlnProGly (GCQPG; printed: GlyCysGlnProGly)	7100 days

Substance	First-Order Deamidation Halftimes of GlyXxxGlnYyyGly
GlyCysGlnSerGly (GCQSG; printed: GlyCysGlnSerGly)	3800 days
GlyCysGlnThrGly (GCQTG; printed: GlyCysGlnThrGly)	3500 days
GlyCysGlnTrpGly (GCQWG; printed: GlyCysGlnTrpGly)	9100 days
GlyCysGlnTyrGly (GCQYG; printed: GlyCysGlnTyrGly)	7900 days
GlyCysGlnValGly (GCQVG; printed: GlyCysGlnValGly)	5000 days
GlyGluGlnAlaGly (GEQAG; printed: GlyGluGlnAlaGly)	7100 days
GlyGluGlnArgGly (GEQRG; printed: GlyGluGlnArgGly)	5200 days
GlyGluGlnAspGly (GEQDG; printed: GlyGluGlnAspGly)	8300 days
GlyGluGlnCysGly (GEQCG; printed: GlyGluGlnCysGly)	2100 days
GlyGluGlnGluGly (GEQEG; printed: GlyGluGlnGluGly)	8200 days
GlyGluGlnGlyGly (GEQGG; printed: GlyGluGlnGlyGly)	750 days
GlyGluGlnHisGly (GEQHG; printed: GlyGluGlnHisGly)	2500 days
GlyGluGlnIleGly (GEQIG; printed: GlyGluGlnIleGly)	4200 days
GlyGluGlnLeuGly (GEQLG; printed: GlyGluGlnLeuGly)	4300 days
GlyGluGlnLysGly (GEQKG; printed: GlyGluGlnLysGly)	4600 days
GlyGluGlnMetGly (GEQMG; printed: GlyGluGlnMetGly)	5200 days
GlyGluGlnPheGly (GEQFG; printed: GlyGluGlnPheGly)	8400 days
GlyGluGlnProGly (GEQPG; printed: GlyGluGlnProGly)	10000 days
GlyGluGlnSerGly (GEQSG; printed: GlyGluGlnSerGly)	6100 days
